T1: human Fc Receptor-Like 5 (FcRL5), full length, expressed on cells (human, UniProt Q96RD9 16-977)
T1 construct: also called CD307e; IRTA2
T1 sequence: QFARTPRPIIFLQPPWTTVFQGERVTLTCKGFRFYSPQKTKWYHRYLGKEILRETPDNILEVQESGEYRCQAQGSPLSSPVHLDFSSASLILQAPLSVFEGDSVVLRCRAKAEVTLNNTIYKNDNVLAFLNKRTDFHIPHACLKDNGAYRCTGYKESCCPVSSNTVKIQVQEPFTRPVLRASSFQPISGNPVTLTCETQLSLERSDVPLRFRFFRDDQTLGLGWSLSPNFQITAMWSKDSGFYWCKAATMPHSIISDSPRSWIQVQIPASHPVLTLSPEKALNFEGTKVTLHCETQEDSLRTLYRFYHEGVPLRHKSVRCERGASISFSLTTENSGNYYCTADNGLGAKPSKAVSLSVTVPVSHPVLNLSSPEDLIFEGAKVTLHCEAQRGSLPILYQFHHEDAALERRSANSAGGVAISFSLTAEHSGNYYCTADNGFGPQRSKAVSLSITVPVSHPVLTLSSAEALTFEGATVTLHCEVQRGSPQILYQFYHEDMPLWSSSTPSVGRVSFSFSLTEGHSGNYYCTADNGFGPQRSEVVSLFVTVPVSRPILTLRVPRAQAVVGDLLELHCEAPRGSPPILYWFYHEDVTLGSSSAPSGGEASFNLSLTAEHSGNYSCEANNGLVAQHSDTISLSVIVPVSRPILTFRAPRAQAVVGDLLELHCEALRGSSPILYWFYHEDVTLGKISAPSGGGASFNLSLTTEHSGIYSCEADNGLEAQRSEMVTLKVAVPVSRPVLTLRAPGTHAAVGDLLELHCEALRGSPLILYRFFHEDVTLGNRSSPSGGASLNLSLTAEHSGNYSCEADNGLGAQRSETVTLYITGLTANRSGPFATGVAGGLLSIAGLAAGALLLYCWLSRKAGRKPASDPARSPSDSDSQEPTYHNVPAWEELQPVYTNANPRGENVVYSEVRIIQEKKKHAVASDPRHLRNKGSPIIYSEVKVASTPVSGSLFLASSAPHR

B1: ET200-115 scFv (scFv)
scFv: QSVLTQPPSVSGAPGQRVTISCTGSSSNIGARYDVHWYQQLPGTAPRLLISANYDRPSGVPDRFSGSKSGTSASLAITGLQAEDEADYYCQSYDSSVSAWVFGGGTKVTVLGSRGGGGSGGGGSGGGGSLEMAEVQLVQSGAEVKEPGASVRISCQASGYNFISYYMHWVRQAPGQGLEWMGTINPGSGETDYSQKLQGRVTMTRDPSTGTFDMGLSSLTSGDTAVYYCATGLIRGASDAFNIWGRGTMVTVSS
notes: VL-linker-VH; screened as scFv phage clone
B2: ET200-109 scFv (scFv)
scFv: LPVLTQPPSASATPGQRVTISCSGTTSNIGSNTVHWYQQLPGTAPKLLIYNNNQRPSGVPDRFSGSKSGTSASLAISGLRSEDEATYSCATWDDSLSGVVFGGGTKLTVLGSRGGGGSGGGGSGGGGSLEMAEVQLVQSGAEVKKPGSSVKVSCKASGGTFSSYAISWVRQAPGQGLEWMGGIIPIFGTANYAQKFQGRVTITADESTSTAYMELSSLRSEDTAVYYCARDPAYGDYEYDAFDIWGQGTMVTVSS
notes: as for B1
B3: ET200-009 scFv (scFv)
scFv: QSVLTQPPSASGTPGQTVTISCSGSNSNIGSNYVYWYQQLPGTAPKLLIYRNNQRPSGVPDRFSGSKSGTSASLAISGLRSEDEADYYCAAWDDSLSAYVFGTGTKVTVLGSRGGGGSGGGGSGGGGSLEMAQVQLVQSGAEVKKPGASVKVSCKASGYTFTSYGISWVRQAPGQGLEWMGWISAYNGNTNYAQKLQGRVTMTTDTSTSTAYMELRSLRSDDTAVYYCARSSGNMVSWKDMWGQGTLVTVSS
notes: as for B1
B4: ET200-118 scFv (scFv)
scFv: QAVLTQPASVSGSPGQSITISCTGTSSDVGGYNYVSWYQQHPGKAPKLMIYEVSNRPSGVSNRFSGSKSGNTASLTISGLQAEDEADYYCSSYTSSSTPYVFGAGTKVTVLGSRGGGGSGGGGSGGGGSLEMAEVQLVESGGGLVQPGRSLRLSCAASGFTFDDYAMHWVRQAPGKGLEWVSGISWNSGSIGYADSVKGRFTISRDNAKNSLYLQMNSLRAEDTALYYCAKARWTAVASDHHFDYWGQGTLVTVSS
notes: as for B1
B5: ET200-106 scFv (scFv)
scFv: SYELTQPPAASGTPGQRVTISCSGGVSNIGSGALNWYQQLPGTAPKLLIYSYNQRPSGVSDRFSGSRSATSASLAISGLQSEDEADYYCATWDDSVNGWVFGGGTKLTVLGSRGGGGSGGGGSGGGGSLEMAEVQLVESGAEVKKPGDSVKVSCKPSGYNFLNYGINWVRQAPGQGLEWMGWISTYTGNTNYAQKLQGRVTFTTDTSTSTAYMEMRSLRSDDTAVYYCARQQGGGWYDVWGQGTLVTVSS
notes: as for B1
B6: ET200-103 scFv (scFv)
scFv: QAVLTQPHSVSESPGKTVTISCTRSSGSIASNYVQWYQQRPGSAPTTVIYEDNQRPSGVPDRFSGSIDSSSNSASLTISGLKTEDEADYYCQSYDSTITVFGGGTKLTVLGSRGGGGSGGGGSGGGGSLEMAQVQLVQSGAEVKKPGSSVKVSCKASGGTFSSYAISWVRQAPGQGLEWMGGIIPIFGTANYAQKFQGRVTITADESTSTAYMELSSLRSEDTAVYYCAGEGYYDSSGYSNGDAFDIWGQGTMVTVSS
notes: as for B1
B7: ET200-108 scFv (scFv)
scFv: QSVLTQPPSVSAPPGQKVTISCSGSSSNIGNNYVSWYQQFPGTAPKLLIYDNNKRPSGISDRFSGSKSGTSATLGIAGLQTGDEADYYCGTWDTSLSGFYVFGSGTKVTVLGSRGGGGSGGGGSGGGGSLEMAEVQLVQSGAEVKKPGASVKVSCKASGYTFTSYTISWVRQAPGQGLEWMGWISTYNGLTNYAQNLQGRVTMTTDTFTTTAYMELRSLRSDDTAVYYCVREGSPDYGDFASFDYWGQGTLVTVSS
notes: as for B1
B8: ET200-121 scFv (scFv)
scFv: QSVLTQPPSVSGAPGQRVTVSCTGSRSNIGAGYDVHWYQQLPGTAPKLLIYGNSNRPPGVPDRFSGSKSGTSASLVITGLQAEDAADYYCQSYDNTVRESPYVFGTGTKVTVLGSRGGGGSGGGGSGGGGSLEMAEVQLVQSGAEVKKPGASVKVSCKVSGYTLTELSMHWVRQAPGKGLEWMGGFDPEDGETIYAQKFQGRVTMTEDTSTDTAYMELSSLRSEDTAVYYCATESNLVSRHYYYYGMDVWGQGTTVTVSS
notes: as for B1
B9: ET200-110 scFv (scFv)
scFv: QSVLTQPPSASGTPGQRVTISCSGSSSNIGTNGVNWFQQFPGTAPKLLIYTNDQRPSGVPDRFSGSKSGTSASLAISGLQSADEADYYCAVWDHSLNGPVFGGGTKLTVLGSRGGGGSGGGGSGGGGSLEMAQVQLVQSGAEVKKPGSSVKVSCKASGGTFSSYAISWVRQAPGQGLEWMGGIIPIFGTANYAQKFQGRVTITADESTSTAYMELSSLRSEDTAVYYCARGAGFDAFDIWGQGTMVTVSS
notes: as for B1
B10: ET200-116 scFv (scFv)
scFv: QPVLTQPPSVSVSPGQTAAIPCSGDKLGDKFASWYQQKPGQSPVLVIYQDTKRPSGIPERFSGSNSGNTATLTISGTQAMDEADYYCQTWASGIVVFGGGTKLTVLGSRGGGGSGGGGSGGGGSLEMAQVQLQQSGPGLVKPSQTLSLTCAISGDSVSSNSAAWNWIRQSPSRGLEWLGRTYYRSKWYNDYAVSVKSRITINPDTSKNQFSLQLNSVTPEDTAVYYCARERSGWKGFDYWGQGTLVTVSS
notes: as for B1
B11: ET200-112 scFv (scFv)
scFv: QAVLTQPPSASGTPGQRVTISCSGSSSNIGSNTVNWYQQLPGTAPKLLMYSNDQRPSGVPDRFSGSKSGTSASLAISGLQSEDEADYYCAAWDDSLNGYVFAAGTQLTVLSSRGGGGSGGGGSGGGGSLEMAQVQLQQWGAGLLKPSETLSLTCAVYGGSFSGYYWSWIRQPPGKGLEWIGEINHSGSTNYNPSLKSRVTISVDTSKNQFSLKLSSVTAADTAVYYCAREGLDAFDIWGQGTMVTVSS
notes: as for B1
B12: ET200-107 scFv (scFv)
scFv: QSVVTQPPSVSAAPGEKVTISCSGSNFNVGNNDVSWYQQLPGAAPKLLIYDNNKRPSGIPDRFSGSKSGTSATLDITGLHSDDEADYYCGTWDSSLNTGGVFGTGTKVTVLGSRGGGGSGGGGSGGGGSLEMAEVQLVQSGAEVKKPGASVKVSCKASGYTFTSYTISWVRQAPGQGLEWMGWISTYNGLTNYAQNLQGRVTMTTDTFTTTAYMELRSLRSDDTAVYYCVREGSPDYGDFASFDYWGQGTLVTVSS
notes: as for B1
B13: ET200-102 scFv (scFv)
scFv: QSVVTQPPSVSAAPGQKVTISCSGSSSNIGNNYVSWYQQLPGTAPKLLIYDNNKRPSGIPDRFSGSKSGTSATLGITGLQTGDEADYYCGTWDSSLSAYVFGTGTKVTVLGSRGGGGSGGGGSGGGGSLEMAQVQLVQSGAEVKKPGASVKVSCKASGYTFTNYALHWVRQAPGQGLEWMAWINGGNGNTKYSQNFQGRVTITRDTSASTAYMELSSLRSEDTAVYYCAKPEETAGTIHFDYWGQGTPVTVSS
notes: as for B1
B14: ET200-113 scFv (scFv)
scFv: QSVVTQPPSVSAAPGQKVTISCSGSSSNIGNNYVSWYQQLPGTAPKLLIYDNNKRPSGIPDRFSGSKSGTSATLGITGLQTGDEADYYCGTWDSSLSAAYVFGTGTKVTVLGSRGGGGSGGGGSGGGGSLEMAQVQLVQSGAEVKKPGASVKVSCKASGYSFTSYTISWVRQAPGQGLEWMGWVSTYNGLRNYAQNLQGRVTMTTDTLTTTAYMELRSLRSDDTAVYYCVREGSPDYGDFAAFDYWGQGTLVTVSS
notes: as for B1
B15: ET200-008 scFv (scFv)
scFv: QSALTQPASVSGSPGQSITISCTGTSSDVGGYNYVSWYQQHPGKAPKLMIYDVSNRPSGVSNRFSGSKSGNTASLTISGLQAEDEADYYCSSYTSSSTSKVFGGGTKLTVLGSRGGGGSGGGGSGGGGSLEMAEVQLVESGGGVVRPGGSLRLSCAASGFTFGDYGMSWVRQAPGKGLEWVSGINWNGGSTGYADSVKGRFTISRDNAKNSLYLQMNSLRAEDTAVYYCARSKYNFHVYYDYWGQGTLVTVSS
notes: as for B1
B16: ET200-105 scFv (scFv)
scFv: SYVLTQPPSVSVSPGQTASITCSGDRLTNKYVSWYQQKPGQSPVLVIYEDAKRPSGIPARFSGSNSGNTATLTISGTQAMDESEYYCQAWDSSVVVFGGGTKLTVLGSRGGGGSGGGGSGGGGSLEMAEVQLVESGGGLVQPGRSLRLSCAASGFTFDDYAMHWVRQAPGKGLEWVSGISWNSGSIGYADSVKGRFTISRDNAKNSLYLQMNSLRDEDTALYYCAKDRGGGVIVKDAFDIWGQGTMVTVSS
notes: as for B1

This assay concerns the target T1, human Fc Receptor-Like 5 (FcRL5), full …. The assay is described as follows: scFv phage: ELISA on His-tag FcRL5, flow cytometry on FcRL5-overexpressing 3T3 and Raji cells. Background: In an ELISA, binding on a coated surface is turned into a signal by an enzyme label.
As to B1, the binding result is given as “binds”. For the molecule B2, the binding result is given as “binds”. As for B3, the entry is “binds”. B4: the binding result was “binds”.

For the molecule B5, the binding result is listed as “binds”.

As to B6, the binding result is “binds”. As to B7, the binding result is “binds”. The value for B8 was “binds”.

B9: the binding result is on record as “binds”.

With B10, the binding result is listed as “binds”. As for B11, the entry is “binds”; as for B12, “binds”; as for B13, “binds”.

On to B14, for which the binding result is recorded as “binds”. B15: the binding result was “binds”.

In the case of B16, the binding result was “binds”.

The record behind these values is patent publication US20230020729A1 (Memorial Sloan Kettering, published 2023).
